Reference: publication PMC6374351, “The Fusion Activity of IM30 Rings Involves Controlled Unmasking of the Fusogenic Core” (Frontiers in Plant Science, 2019)

Experiments:
Assay in all cases: SEC; Superdex 200 HR 16/60 GL, 4°C, 0.5 mL/min, 20 mM HEPES pH 7.6; apparent masses from Kav against marker proteins; apparent oligomeric state = extrapolated mass / calculated monomer mass (with His-tag)
[1] = target: IM30 α1-3 (helices 1-3) (Synechocystis sp. PCC 6803)
[2] = target: IM30 α1-4 (helices 1-4) (Synechocystis sp. PCC 6803)
[3] = target: the molecule itself

## IM30 α1-3 (helices 1-3) (domain or fragment)
[1]
  stoichiometry N: 1.76

## IM30 α1-4 (helices 1-4) (domain or fragment)
[2]
  stoichiometry N: 2.2

B1: inner membrane-associated protein of 30 kDa (IM30) wt, Synechocystis sp. PCC 6803 (natural protein, UniProt Q55707 1-267, looked up)
chain: MGLFDRLGRVVRANLNDLVSKAEDPEKVLEQAVIDMQEDLVQLRQAVARTIAEEKRTEQRLNQDTQEAKKWEDRAKLALTNGEENLAREALARKKSLTDTAAAYQTQLAQQRTMSENLRRNLAALEAKISEAKTKKNMLQARAKAAKANAELQQTLGGLGTSSATSAFERMENKVLDMEATSQAAGELAGFGIENQFAQLEASSGVEDELAALKASMAGGALPGTSAATPQLEAAPVDSSVPANNASQDDAVIDQELDDLRRRLNNL
notes: IM30 (Vipp1) of the cyanobacterium Synechocystis sp; PCC 6803, wild type, helices 1-7; the last residue is 267 (α4-7 = amino acids 147-267); Forms rings of variable size; also called Vipp1; full-length protein; source: heterologously expressed and purified (as in Fuhrmann et al., 2009a)
[3]
  binding result: binds
